Results published in the supplement of paper PMC9170038.

System: MS2 coat protein
Assay: apparent KD of MS2 coat protein; designed switch direction (-1 OFF switch, 1 ON switch): -1; higher = weaker reporter binding
In short: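 An oligonucleotide input, 200 uM small-molecule ligand, or no input was present during titration of SNAP-549-labelled MS2 coat protein, which was doubled from 0.7 or 1.5 nM to 3 µM. Designed RNA switches had been transcribed on Illumina chips by stalled E. coli RNA polymerase. Apparent KD per design is the median over clusters of curves fitted to normalised cluster fluorescence.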

[1] = input ligand: microRNA oligo, concentration not stated
[2] = Eterna round: R95, input ligand: FMN 200 uM
[3] = Eterna round: R95, input ligand: microRNA oligo, concentration not stated
[4] = Eterna round: R95, input ligand: none

## CUCAUUCGAGGAUAUGCAGAAUGGGUCCAAUCAUAAGACAUACAUGAGGAUCACCCAUGUAGAAGGCGGCCAUC [Eternabot (L1) Solution 59] (Eterna round: R97, puzzle: Exclusion 2)
Input ligand: FMN 200 uM
  apparent KD of MS2 coat protein: 0.026 µM
Input ligand: none
  apparent KD of MS2 coat protein: 0.0256 µM

## CUCCGGCGUGUAGGAUAUGGAUCCGAUUAGGAUCCAGAAGGACAUGAGGAUCACCCAUGUACAUGUAAACAGUCAUCACCGGAC [salish99_ExNG1_r04_204] (Eterna round: R96, puzzle: Exclusion NG 1)
Input ligand: FMN 200 uM
  apparent KD of MS2 coat protein: 0.155 µM
[1]
  apparent KD of MS2 coat protein: 0.0104 µM
Input ligand: none
  apparent KD of MS2 coat protein: 0.0187 µM

## CUCCGGCGUGUAGGAUAUGGAUCCGAUUAGGAUCCAGAAGGACAUGAGGAUCACCCAUGUACAUGUAAACGGUCGUCACCGGGC [salish99_ExNG1_r04_207] (Eterna round: R96, puzzle: Exclusion NG 1)
Input ligand: FMN 200 uM
  apparent KD of MS2 coat protein: 0.134 µM
[1]
  apparent KD of MS2 coat protein: 0.0262 µM
Input ligand: none
  apparent KD of MS2 coat protein: 0.0613 µM

## CUCCUCAUGACGCCUAAACACAUGAGGAUCACCCAUGUACAGGCUUUUUGUCGUCUUAUAAUAAAACCGAGGAUACG [Orlaorusti] (Eterna round: R96, puzzle: Sensor v3, turn-off variant 1)
Input ligand: FMN 200 uM
  apparent KD of MS2 coat protein: 0.0178 µM
[1]
  apparent KD of MS2 coat protein: 0.0522 µM
Input ligand: none
  apparent KD of MS2 coat protein: 0.0232 µM

## CUCCUCAUGACGCCUAAACACAUGAGGAUCACCCAUGUACAGGCUUUUUGUCGUCUUAUAAUAAAACCGAGGAUACG [Orlaorusti] (puzzle: Sensor v3, turn-off variant 1)
[2]
  apparent KD of MS2 coat protein: 0.0202 µM
[3]
  apparent KD of MS2 coat protein: 0.116 µM
[4]
  apparent KD of MS2 coat protein: 0.0232 µM

## CUCGUGCAGCAAAGCUGUACGAGUACAUGAGGAUCACCCAUGUAGGAUAUGGUACGCAAAGCGUGCCAGAAGGACGUGCGUUAG [Mat - Exclusion NG 3 - Mod of JL - D94] (Eterna round: R96, puzzle: Exclusion NG 3)
Input ligand: FMN 200 uM
  apparent KD of MS2 coat protein: 0.0925 µM
[1]
  apparent KD of MS2 coat protein: 0.0195 µM
Input ligand: none
  apparent KD of MS2 coat protein: 0.0497 µM

## CUCUAGUCAGGAUAUUAGUUGCCACCUGGACACAGGCGGCAUGAGAAGGGACUUGAGGAUCACCCAAGUAAAAG [Quaesbe] (Eterna round: R97, puzzle: Exclusion 4)
Input ligand: FMN 200 uM
  apparent KD of MS2 coat protein: 0.384 µM
Input ligand: none
  apparent KD of MS2 coat protein: 0.758 µM

## CUCUCGCGAGGAUAUGAUUUAAGUAACAUGAGGAUCACCCAUGUUUUUCCGUUGUUAUGUUCAGAAGGCGCGUGAU [JR_E5_Sub022] (puzzle: Exclusion 5)
[3]
  apparent KD of MS2 coat protein: 0.0388 µM

## CUGAACCCGGUAGGAUAUAUUGUGGGCAAGCAUGGAACAACAUGAGGAUCACCCAUGUAAUUUAGGUAGAAGGGCCAAAAGAUU [Excl-NG2-LRO08] (Eterna round: R96, puzzle: Exclusion NG 2)
Input ligand: FMN 200 uM
  apparent KD of MS2 coat protein: 0.0568 µM
[1]
  apparent KD of MS2 coat protein: 0.0527 µM
Input ligand: none
  apparent KD of MS2 coat protein: 0.0553 µM

## CUGAGCUGACGGAGAUCCAACAUGAGGAUCACCCAUGUCUCAAAAGCUUUUUGCUCGUCUUAUCCUCCUCAGUUCAC [Mat - Sensor, turn-off var - Eli Mod - D55] (Eterna round: R97, puzzle: Sensor, turn-off variant 1)
Input ligand: FMN 200 uM
  apparent KD of MS2 coat protein: 0.0265 µM
Input ligand: none
  apparent KD of MS2 coat protein: 0.0226 µM

## CUGAGCUGAGGAUAUACAUGAGGAUCACCCAUGUUAAGCAGCUUGCGUAAAAGCAGAUGUAGAAGGCAGUUCGG [Mod of JL 18 - Jieux - Exclusion 3] (Eterna round: R97, puzzle: Exclusion 3)
Input ligand: FMN 200 uM
  apparent KD of MS2 coat protein: 0.0181 µM
Input ligand: none
  apparent KD of MS2 coat protein: 0.0137 µM

## CUGAGGUAGCGGUCCUAUGACAUGAGGAUCACCCAUGUACCUUGCUACGAGCUUUUUGCUCGUCUUAUAAUUCUCGG [JL Atriat mod 3] (puzzle: Sensor v3, turn-off variant 1)
[2]
  apparent KD of MS2 coat protein: 0.466 µM
[3]
  apparent KD of MS2 coat protein: 0.0915 µM
[4]
  apparent KD of MS2 coat protein: 0.526 µM

## CUGAGGUAGCGGUCCUAUUACAUGAGGAUCACCCAUGUACCUUGCUUCGAGCUUUUAGCUCGUCUUAUGAUUCUCGG [Mat - Sensor v3 - turn-off var 1 - JL Mod - D38] (puzzle: Sensor v3, turn-off variant 1)
[2]
  apparent KD of MS2 coat protein: 0.277 µM
[3]
  apparent KD of MS2 coat protein: 0.447 µM
[4]
  apparent KD of MS2 coat protein: 0.381 µM

## CUGAGUAGUCAGGAUAUGCUGUACAAAAGUACAGCAGAAGGGAUUACAUGAGGAUCACCCAUGUGUACUUCAUG [)mei Ex6 B20] (Eterna round: R97, puzzle: Exclusion 6)
Input ligand: FMN 200 uM
  apparent KD of MS2 coat protein: 0.401 µM
Input ligand: none
  apparent KD of MS2 coat protein: 0.184 µM

## CUGAUGUGAGGAUAUCUACGCCAAGUGUUUCACUUGGCGCAAGAGAAGGCACAUGAGGAUCACCCAUGUACUUC [jl-ex4-4.37 ViennaUCT mod] (Eterna round: R97, puzzle: Exclusion 4)
Input ligand: FMN 200 uM
  apparent KD of MS2 coat protein: 0.137 µM
Input ligand: none
  apparent KD of MS2 coat protein: 0.0228 µM

## CUGCUCCGUGUAGGAUAUCCGUGCAACCAAUACGGAGAAGGACAUGAGGAUCACCCAUGUAUGUUAUUAUCACGUGAAGCGUCC [Design 24] (Eterna round: R96, puzzle: Exclusion NG 1)
Input ligand: FMN 200 uM
  apparent KD of MS2 coat protein: 0.0231 µM
[1]
  apparent KD of MS2 coat protein: 0.017 µM
Input ligand: none
  apparent KD of MS2 coat protein: 0.0243 µM

## CUGCUCCGUGUAGGAUAUGCAUACUCCCAUUAUGCAGAAGGACAUGAGGAUCACCCAUGUAUGUUAUUAUCAUGUGUUGCAUGC [Design 11] (Eterna round: R96, puzzle: Exclusion NG 1)
Input ligand: FMN 200 uM
  apparent KD of MS2 coat protein: 0.164 µM
[1]
  apparent KD of MS2 coat protein: 0.0339 µM
Input ligand: none
  apparent KD of MS2 coat protein: 0.0373 µM

## CUGCUCCGUGUAGGAUAUGCAUAUUCCCAUUAUGCAGAAGGACAUGAGGAUCACCCAUGUAUGUUAUUAUCAUGUGUUACAUGC [Design 9] (Eterna round: R96, puzzle: Exclusion NG 1)
Input ligand: FMN 200 uM
  apparent KD of MS2 coat protein: 0.203 µM
[1]
  apparent KD of MS2 coat protein: 0.0249 µM
Input ligand: none
  apparent KD of MS2 coat protein: 0.0332 µM

## CUGCUGGAGCGUCGCUUUGGUCGUACAUGAGGAUCACCCAUGUAGGAUAUGGUAAAAUUCGCCUGCUAGAAGGAUAGAGUGGUC [salish99_ExNG3_r04_618] (Eterna round: R96, puzzle: Exclusion NG 3)
Input ligand: FMN 200 uM
  apparent KD of MS2 coat protein: 0.142 µM
[1]
  apparent KD of MS2 coat protein: 0.0936 µM
Input ligand: none
  apparent KD of MS2 coat protein: 0.0789 µM

## CUGGACCCGGUAGGAUAUAUUGUGGGCGGGCGUGGAACGACAUGAGGAUCACCCAUGUGAUUGAGGUAGAAGGGCCGAGAGGUU [Excl-NG2-LRO18] (Eterna round: R96, puzzle: Exclusion NG 2)
Input ligand: FMN 200 uM
  apparent KD of MS2 coat protein: 0.0527 µM
[1]
  apparent KD of MS2 coat protein: 0.0338 µM
Input ligand: none
  apparent KD of MS2 coat protein: 0.0618 µM

## CUGGUCCGAGGAUAUAUUAUGUGAUACAUGAGGAUCACCCAUGUUAUAUGAUGGAUAUAAAUAGAAGGCGGACUAG [Mat - Exclusion 5 - JL mod - D66] (puzzle: Exclusion 5)
[2]
  apparent KD of MS2 coat protein: 0.0486 µM
[3]
  apparent KD of MS2 coat protein: 0.0424 µM
[4]
  apparent KD of MS2 coat protein: 0.0358 µM

## CUGGUGUGAGGAUAUCAGGACACGUACGCGGGCAUGUCAAAUGAGAAGGCACAUGAGGAUCACCCAUGUGGGAC [Geve] (puzzle: Exclusion 4)
[3]
  apparent KD of MS2 coat protein: 0.026 µM

## CUGUGCACGCUGCGAUCCUACAUGAGGAUCACCCAUGUGGUCUGGUGGCGUGGGUCACCGGACUUGGCUCGUCUUGC [salish99_S_TOV1_R5_071] (Eterna round: R97, puzzle: Sensor, turn-off variant 1)
Input ligand: FMN 200 uM
  apparent KD of MS2 coat protein: 0.0314 µM
Input ligand: none
  apparent KD of MS2 coat protein: 0.0316 µM

## CUGUGCACGCUGCGGUCCUACAUGAGGAUCACCCAUGUGGUCUGGUGGCGUGGGUCGCCGGACUUGGCUCGUCUUGU [salish99_S_TOV1_R5_024] (Eterna round: R97, puzzle: Sensor, turn-off variant 1)
Input ligand: FMN 200 uM
  apparent KD of MS2 coat protein: 0.0182 µM
Input ligand: none
  apparent KD of MS2 coat protein: 0.0193 µM
